Tests used:
[1] = system: T1, fluorophore-labeled thrombin substrate (fPR-x-S extended with glycine spacers and a C-terminal cysteine) on nanoworms
T1 sequence: GGFPRSGGGC

[2] = system: T2, D-isomer of the MMP9 substrate PLGVRGK on nanoworms
T2 sequence: PLGVRGK

[3] = system: T3, D-stereoisomer of the thrombin substrate PLGLRSW on nanoworms
T3 sequence: PLGLRSW

[4] = system: T4, fluorescein-labeled thrombin-cleavable substrate PLGLRSW on nanoworms
T4 sequence: PLGLRSW

[5] = target: T5, fluorophore-labeled thrombin substrate (fPR-x-S extended with glycine spacers and a C-terminal cysteine) on nanoworms (not fully specified)
T5 chain: GGFPRSGGGC

Molecule: FIXa (Haematologic Technologies)
- sample fluorescence (fluorogenic NW protease assay) [1]: negligible proteolysis was observed from the panel of non-cognate proteases

Molecule: FXIa (Haematologic Technologies)
- sample fluorescence (fluorogenic NW protease assay) [1]: negligible proteolysis was observed from the panel of non-cognate proteases

Molecule: FXa (Haematologic Technologies)
- sample fluorescence (fluorogenic NW protease assay) [1]: negligible proteolysis was observed from the panel of non-cognate proteases

Molecule: activated protein C (Haematologic Technologies)
- sample fluorescence (fluorogenic NW protease assay) [1]: negligible proteolysis was observed from the panel of non-cognate proteases

Molecule: recombinant MMP9 (R&D Systems)
- sample fluorescence (fluorogenic NW protease assay) [2]: no activity when the broad-spectrum MMP inhibitor Marimastat or D-isomer substrates were used

Molecule: recombinant thrombin (Haematologic Technologies)
- sample fluorescence (fluorogenic NW protease assay) [3]: No increase in fluorescence was observed in the presence of Argatroban, a direct thrombin inhibitor, or when the substrate was synthesized with protease-resistant D-stereoisomers
- sample fluorescence (fluorogenic NW protease assay) [4]: observed a rapid increase in sample fluorescence as cleaved peptide fragments released into solution fluoresced freely

B1: FVIIa (Haematologic Technologies) (protein)
chain: ANAFLEELRPGSLERECKEEQCSFEEAREIFKDAERTKLFWISYSDGDQCASSPCQNGGSCKDQLQSYICFCLPAFEGRNCETHKDDQLICVNENGGCEQYCSDHTGTKRSCRCHEGYSLLADGVSCTPTVEYPCGKIPILEKRNASKPQGRIVGGKVCPKGECPWQVLLLVNGAQLCGGTLINTIWVVSAAHCFDKIKNWRNLIAVLGEHDLSEHDGDEQSRRVAQVIIPSTYVPGTTNHDIALLRLHQPVVLTDHVVPLCLPERTFSERTLAFVRFSLVSGWGQLLDRGATALELMVLNVPRLMTQDCLQQSRKVGDSPNITEYMFCAGYSDGSKDSCKGDSGGPHATHYRGTWYLTGIVSWGQGCATVGHFGVYTRVSQYIEWLQKLMRSEPRPGVLLRAPFP
- sample fluorescence (fluorogenic NW protease assay) [5]: negligible proteolysis was observed from the panel of non-cognate proteases

From patent US20140363833
